According to patent US20260193348A1 (ANTENGENE BIOLOGICS, published 2026):

Tests used:
[1] = molecular target: T1, GPRC5D (G-protein coupled receptor family C group 5 member D), human, on multiple myeloma cell lines (human, UniProt Q9NZD1 1-345); experiment: cell-based or functional assay
[2] = molecular target: T1, GPRC5D (G-protein coupled receptor …); experiment: cell-based or functional assay; remark: listed apart in the source
[3] = molecular target: T2, CD3 (Cluster of Differentiation 3 protein), human, on T cells / Jurkat cells (human, UniProt P07766 23-207; P04234 22-171; P09693 23-182); experiment: FACS, Jurkat cells, antibody at 50 µg/ml
T2 construct: whole, on cells; part of the TCR-CD3 complex; also called human CD3
T2 sequence (P07766 23-207, chain 1 of 3): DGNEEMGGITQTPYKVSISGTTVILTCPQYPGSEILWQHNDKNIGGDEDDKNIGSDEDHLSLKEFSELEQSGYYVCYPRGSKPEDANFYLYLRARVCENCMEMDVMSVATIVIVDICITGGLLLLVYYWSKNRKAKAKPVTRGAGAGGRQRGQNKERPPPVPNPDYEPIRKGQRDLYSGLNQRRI
T2 sequence (P04234 22-171, chain 2 of 3): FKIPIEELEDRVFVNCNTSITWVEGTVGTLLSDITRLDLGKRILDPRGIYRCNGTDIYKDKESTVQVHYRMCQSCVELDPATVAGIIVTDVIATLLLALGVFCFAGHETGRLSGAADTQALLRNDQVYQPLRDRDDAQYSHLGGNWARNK
T2 sequence (P09693 23-182, chain 3 of 3): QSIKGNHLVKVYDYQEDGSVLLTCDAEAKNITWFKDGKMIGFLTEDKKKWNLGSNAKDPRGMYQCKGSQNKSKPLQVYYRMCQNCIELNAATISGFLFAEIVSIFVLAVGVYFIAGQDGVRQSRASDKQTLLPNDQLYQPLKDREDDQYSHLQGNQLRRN
Procedure: The binding affinities of the generated humanized Fab-scFv-Fab bispecific antibodies were determined by FACS analysis. […] (a) Jurkat cells were washed by Staining Buffer (PBS+1% BSA) in round bottom 96-well plate. [0833] (b) Antibody dilutions and cells were added to each well, incubated at 4 degrees for 1 hour. [0834] (c) Cells were spined down at 300 g for 3 minutes, and the supernatants were discarded. [0835] (d) Cells were washed with Staining Buffer. […] (e) Step (d) was repeated and the cells were incubated for 0.5 hours at 4 degrees with secondary antibody in Staining Buffer. [0837] (f) After incubation, step (d)-(e) were repeated. […] (g) Staining Buffer was added and fluorescence signals were recorded by flow cytometry.

T1 sequence (Q9NZD1 whole entry): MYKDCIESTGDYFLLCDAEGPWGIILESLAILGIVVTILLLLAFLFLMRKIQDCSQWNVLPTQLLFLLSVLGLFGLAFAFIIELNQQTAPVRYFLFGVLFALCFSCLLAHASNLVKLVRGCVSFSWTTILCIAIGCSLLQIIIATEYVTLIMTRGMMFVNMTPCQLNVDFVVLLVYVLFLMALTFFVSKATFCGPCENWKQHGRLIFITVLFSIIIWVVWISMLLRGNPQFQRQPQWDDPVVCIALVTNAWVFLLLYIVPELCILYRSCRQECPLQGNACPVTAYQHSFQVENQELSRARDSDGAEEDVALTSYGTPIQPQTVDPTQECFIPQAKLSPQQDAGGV

B1: Bis-40E9-L3H1 (bispecific antibody)
heavy: EVQLVQSGAEVKKPGASVKVSCKASGYTFTSYVIHWVRQAPGQGLEWMGYFNPYNDGTKYNEEFKGRVTLTSDKSTSTAYMELRSLRSDDTAVYYCARGGVRRYFDVWGQGTTVTVSS
heavy (part 1 of 2): EVQLVQSGAEVKKPGASVKVSCKASGYTFTSYVIHWVRQAPGQGLEWMGYFNPYNDGTKYNEEFKGRVTLTSDKSTSTAYMELRSLRSDDTAVYYCARGGVRRYFDVWGQGTTVTVSS
heavy (part 2 of 2): GGGGSGGGGSEVQLVQSGAEVKKPGSSVKVSCKASGGTFSSYVIHWVRQAPGQCLEWMGYINPYNDVIKYNEKFKGRVTITADKSTSTAYMELSSLRSEDTAVYYCARDSYYSYDGFAYWGQGTLVTVSSGGGGSGGGGSGGGGSGGGGSEIVLTQSPDFQSVTPKEKVTITCSASSSVSYMHWYQQKPDQSPKRWIYDTSKLASGVPSRFSGSGSGTDYTLTINSLEAEDAATYYCQQWSSNPPTFGCGTKVEIKGGGGSGGGGS
light: DIQMTQSPSSLSASVGDRVTITCRASQDIGSNLNWLQQKPGKAIKRLIYATFGLDSGVPSRFSGSRSGTDFTLTISSLQPEDFATYYCQQYASFPYTFGGGTKVEIK
notes: Fab-scFv-Fab (2+1), LALA; not shown: CH1; CL; CH2-CH3 with L234A, L235A; heavy chain constant region with L234A, L235A
IC50 (nM), T-Cell Dependent Cytotoxicity, MM.1S [1]: 0.0203 nM
IC50 (nM), T-Cell Dependent Cytotoxicity, MOLP-8 [1]: 0.00244 nM
IC50 (nM), T-Cell Dependent Cytotoxicity, RPMI8226 [1]: 0.292 nM
Top (%), T-Cell Dependent Cytotoxicity, MM.1S [1]: 74.9%
Top (%), T-Cell Dependent Cytotoxicity, MOLP-8 [1]: 68.3%
Top (%), T-Cell Dependent Cytotoxicity, RPMI8226 [1]: 13.6%
EC50 (nM), luciferase assay, L363 [2]: 1.71 nM
EC50 (nM), luciferase assay, MM.1S [2]: 0.0332 nM
EC50 (nM), luciferase assay, MOLP-8 [2]: 0.072 nM
Top (RLU), luciferase assay, L363 [2]: 2760 RLU
Top (RLU), luciferase assay, MM.1S [2]: 1710 RLU
Top (RLU), luciferase assay, MOLP-8 [2]: 150 RLU
MFI (50 µg/ml) [3]: 142 MFI
